The values below come from patent publication US20220356230A1.

What all share (assay): Luminex bead assay, antibody supernatant on modified RBD.mmH microspheres
The target of assay [1] is MOD9 - SARS-CoV-2 Spike Protein (RBD)(R319-F541).mmH (SARS-CoV-2).
The target of assay [2] is MOD10 - SARS-CoV-2 Spike Protein (RBD)(R319-F541).mmH (SARS-CoV-2).
Assay [3] has as its target MOD11 - SARS-CoV-2 Spike Protein (RBD)(R319-F541).mmH (SARS-CoV-2).
In assay [4] the target is MOD13 - SARS-CoV-2 Spike Protein (RBD)(R319-F541).mmH (SARS-CoV-2).
The target in assay [5] is MOD14 - SARS-CoV-2 Spike Protein (RBD)(R319-F541).mmH (SARS-CoV-2).
In assay [6] the target is MOD8 - SARS-CoV-2 Spike Protein (RBD)(R319-F541).mmH (SARS-CoV-2).
In assay [7] the target is MOD12 - SARS-CoV-2 Spike Protein (RBD)(R319-F541).mmH (SARS-CoV-2).
Assay [8] deals with MOD15 - SARS-CoV-2 Spike Protein (RBD)(R319-F541).mmH (SARS-CoV-2).

Consider mAb10936 (antibody), for which the Binding signal (MFI) worked out at 29100 MFI in assay [1]; 28800 MFI in assay [2]; 30800 MFI in assay [3]; 29200 MFI in assay [4]; 28500 MFI in assay [5]; 2920 MFI in assay [6]. In addition, the results for the Binding signal (MFI) in assay [7] and in assay [8] were 31700 MFI and 21700 MFI, respectively.
